Data reported in patent publication US20120107244A1 (UNIVERSIT T ULM, published 2012).

Biological target: the molecule itself
Test: gel filtration (Superdex 200); elution volume against monomer, dimer and tetramer standards

B1: monomeric eqFP611 variant as set forth in SEQ ID No. 1 (mRuby) (other)
chain: MNSLIKENMRMKVVLEGSVNGHQFKCTGEGEGNPYMGTQTMRIKVIEGGPLPFAFDILATSFMYGSRTFIKYPKGIPDFFKQSFPEGFTWERVTRYEDGGVITVMQDTSLEDGCLVYHAQVRGVNFPSNGAVMQKKTKGWEPNTEMMYPADGGLRGYTHMALKVDGGGHLSCSFVTTYRSKKTVGNIKMPGIHAVDHRLERLEESDNEMFVVQREHAVAKFAGLGGG
notes: not shown: N-terminal poly-His tag from the pQE-32 vector
Q: Does B1 bind?
A: no binding (tested: 4-30 mg/ml (0.16-1.2 mM))
